Measured values taken from patent publication US20210101937A1 (Bicycle, published 2021).

B1: BCY12375 (peptide)
peptide 1: SDKCSAGWLTMCQKLHLCPSH
peptide 2: CXEEKPYCFADPYXCX
modifications: [Ac]C[tBuAla]EE(dK)PYCFADPY[Nle]C[Dap(PYA)]; carries Palmitic acid-PEG10 (Example 1); Cys residues bonded to TATA scaffold; Ac-SDKCSAGWLTMCQK[PYA]LHLCPSH; Cys residues bonded to TATA scaffold
B2: BCY12230 (peptide)
peptide 1: DXCSKGWLTMCQKLHLCPSH
peptide 2: CXPEXPYCFADPYXCA
modifications: Ac-C[tBuAla]PE[D-Lys(PYA)]PYCFADPY[Nle]CA; Cys residues bonded to TATA scaffold; [Ac]D[HArg]CSKGWLTMCQK(Ac)LHLCPSH; Cys residues bonded to TATA scaffold
B3: BCY12242 (peptide)
peptide 1: DXCSAGWLTMCQKLKLCPSH
peptide 2: CXPEXPYCFADPYXCA
modifications: Ac-C[tBuAla]PE[D-Lys(PYA)]PYCFADPY[Nle]CA; Cys residues bonded to TATA scaffold; [Ac]D[HArg]CSAGWLTMCQK(Ac)LKLCPSH; Cys residues bonded to TATA scaffold

Target: CD137 (UniProt Q07011 24-255, limits assumed)
Assay: cell-based or functional assay

CD137, sequence (Q07011 24-255 limits assumed): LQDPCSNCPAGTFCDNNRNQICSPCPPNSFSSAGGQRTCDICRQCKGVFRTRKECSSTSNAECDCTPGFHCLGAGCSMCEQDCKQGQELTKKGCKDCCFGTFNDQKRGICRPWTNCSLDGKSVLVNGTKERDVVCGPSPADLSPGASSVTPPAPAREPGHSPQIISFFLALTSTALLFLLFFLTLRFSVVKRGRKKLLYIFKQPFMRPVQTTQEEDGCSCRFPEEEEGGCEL

Binder	EC50	Fold Induction over background
B1	22 nM	3 fold over background
B2	46 nM	10 fold over background
B3	20 nM	13 fold over background
